# From paper PMC4678028, “Oligomerization of Baculovirus LEF-11 Is Involved in Viral DNA Replication” (PLoS ONE, 2015)
# Changes are numbered by the printed parent chain. Names and notes keep the numbering of the source.
# T1: BmNPV late expression factor 11 (LEF-11), cMYC- or FLAG-tagged (Bombyx mori nucleopolyhedrovirus (BmNPV)), O92404
# T1 chain: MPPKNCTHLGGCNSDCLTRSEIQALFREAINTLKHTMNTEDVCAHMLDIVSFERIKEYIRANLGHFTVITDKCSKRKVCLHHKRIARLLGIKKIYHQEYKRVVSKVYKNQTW
# B1: DsRed-LEF11 (72–112) (domain or fragment)
# chain: KCSKRKVCLHHKRIARLLGIKKIYHQEYKRVVSKVYKNQTW
# notes: LEF-11 of BmNPV, residues 72-112; source: BmN-SWU1 cells, transfected, in lysate; not shown: DsRed, N-terminal, kept
# B2: DsRed-LEF11 (12–61) (domain or fragment)
# chain: CNSDCLTRSEIQALFREAINTLKHTMNTEDVCAHMLDIVSFERIKEYIRA
# notes: LEF-11 of BmNPV, residues 12-61; source: BmN-SWU1 cells, transfected, in lysate; not shown: DsRed, N-terminal, kept
# B3: pIZ-DsRed-LEF11-Y58E&I59E (natural protein)
# chain: T1 chain with Y58E, I59E
# notes: LEF-11 of BmNPV with Y58E and I59E; Probably the whole LEF-11 as in pIZ-DsRed-LEF11; also called YE58&I59E; source: BmN-SWU1 cells, transfected, in lysate; not shown: DsRed, N-terminal, kept
# B4: pIZ-DsRed-LEF11-I85E (natural protein)
# chain: T1 chain with I85E
# notes: LEF-11 of BmNPV with I85E; Probably the whole LEF-11 as in pIZ-DsRed-LEF11; source: BmN-SWU1 cells, transfected, in lysate; not shown: DsRed, N-terminal, kept
# B5: pIZ-DsRed-LEF11-I55E (natural protein)
# chain: T1 chain with I55E
# notes: LEF-11 of BmNPV with I55E; Probably the whole LEF-11 as in pIZ-DsRed-LEF11; source: BmN-SWU1 cells, transfected, in lysate; not shown: DsRed, N-terminal, kept
# B6: pIZ-DsRed-LEF11-L88E&L89E (natural protein)
# chain: T1 chain with L88E, L89E
# notes: LEF-11 of BmNPV with L88E and L89E; Probably the whole LEF-11 as in pIZ-DsRed-LEF11; source: BmN-SWU1 cells, transfected, in lysate; not shown: DsRed, N-terminal, kept
# B7: DsRed-LEF11 (42–61) (domain or fragment)
# chain: VCAHMLDIVSFERIKEYIRA
# notes: LEF-11 of BmNPV, residues 42-61; source: BmN-SWU1 cells, transfected, in lysate; not shown: DsRed, N-terminal, kept
# B8: DsRed-LEF11 (72–101) (domain or fragment)
# chain: KCSKRKVCLHHKRIARLLGIKKIYHQEYKR
# notes: source: BmN-SWU1 cells, transfected, in lysate; not shown: DsRed, N-terminal, kept
# B9: DsRed-LEF11 (2–61) (domain or fragment)
# chain: PPKNCTHLGGCNSDCLTRSEIQALFREAINTLKHTMNTEDVCAHMLDIVSFERIKEYIRA
# notes: LEF-11 of BmNPV, residues 2-61; source: BmN-SWU1 cells, transfected, in lysate; not shown: DsRed, N-terminal, kept
# B10: DsRed-LEF11 (62–112) (domain or fragment)
# chain: NLGHFTVITDKCSKRKVCLHHKRIARLLGIKKIYHQEYKRVVSKVYKNQTW
# notes: LEF-11 of BmNPV, residues 62-112; source: BmN-SWU1 cells, transfected, in lysate; not shown: DsRed, N-terminal, kept
# B11: DsRed-LEF11 (2–51) (domain or fragment)
# chain: PPKNCTHLGGCNSDCLTRSEIQALFREAINTLKHTMNTEDVCAHMLDIVS
# notes: LEF-11 of BmNPV, residues 2-51; source: BmN-SWU1 cells, transfected, in lysate; not shown: DsRed, N-terminal, kept
# B12: DsRed-LEF11 (52–61) (domain or fragment)
# chain: FERIKEYIRA
# notes: LEF-11 of BmNPV, residues 52-61; source: BmN-SWU1 cells, transfected, in lysate; not shown: DsRed, N-terminal, kept
# B13: DsRed-LEF11 (22–61) (domain or fragment)
# chain: IQALFREAINTLKHTMNTEDVCAHMLDIVSFERIKEYIRA
# notes: LEF-11 of BmNPV, residues 22-61; source: BmN-SWU1 cells, transfected, in lysate; not shown: DsRed, N-terminal, kept
# B14: DsRed-LEF11 (32–61) (domain or fragment)
# chain: TLKHTMNTEDVCAHMLDIVSFERIKEYIRA
# notes: LEF-11 of BmNPV, residues 32-61; source: BmN-SWU1 cells, transfected, in lysate; not shown: DsRed, N-terminal, kept
# B15: BmNPV late expression factor 11 (LEF-11), cMYC- or FLAG-tagged, O92404 1-112 (natural protein)
# chain: T1 chain
# Target: the molecule itself
# Assay: non-reducing SDS-PAGE with western blot; lysates of BmN-SWU1 cells transfected with pIZ-DsRed-LEF11 truncation or point mutant plasmids; loading buffer without β-mercaptoethanol; anti-DsRed blot
# Conditions: not given
row,Binder,stoichiometry N
1,B1,2
2,B2,2
3,B3,2
4,B4,2
5,B5,2
6,B6,2
7,B7,2
8,B8,2
9,B9,2
10,B10,2
11,B11,2
12,B12,2
13,B13,2
14,B14,2

# Target: T1, BmNPV late expression factor 11 …
# Assay: non-reducing SDS-PAGE with western blot; lysate of BmN-SWU1 cells transfected with pIZ-LEF11^cMYC, 72 h.p.t.; loading buffer without β-mercaptoethanol; 12% SDS-PAGE; anti-cMYC blot
# Conditions: remark: other sources report otherwise
row,Binder,stoichiometry N
1,B15,4
